Where no end group is shown, it is not given here.
How the values were obtained:
[1] = tested on: adult zebrafish brain (telencephalon); conditions: for number of TUNEL-positive (apoptotic) cells: CVMI 200 μM, 1 dpi, per telencephalic hemisphere per section, n = 3
Experimental: (§1) Cerebroventricular microinjections (CVMI) were executed as described in [7, 8]. Fish were anesthetized using MESAB (0.01%) and an incision placed above the optic tectum with a fine needle (Becton Dickinson Biosciences). Through this hole a glass capillary is inserted and the liquid disperses evenly throughout the cerebroventricular fluid upon high pressure injection.
(§2) Fish were sacrificed 1 day post injection and heads fixed over night at 4°C in 2% PFA. Thereafter heads were transferred to 20% Sucrose-EDTA in […] phosphate buffer, pH 7.5. For cryosectioning embedding in Sucrose(20%)-Gelatine (7.5%) on dry ice was done and heads stored at -80°C. 12 μm cryosections were cut using a cryostat microtome and stored at -20°C.
TUNEL stainings of sections were carried out using the ApoTag Red In Situ apoptosis Detection Kit (Chemicon International). Stainings were performed according to manufacturer’s instructions and positive and negative controls were included.
(§3) Images were acquired using an inverted Zeiss AxioImager Z1. Only sections between the caudal end of the olfactory bulb and anterior commissure were counted. The quantification of the average translocation range was done using the AxioVision free hand surface area measurement tool. The area showing anti-fluorescein staining in the left hemisphere was measured against the total this telencephalic hemisphere, based on color thresholds against control images. The statistical evaluation was performed using GraphPad Prism (Version 6.02) for one-way ANOVA followed by a Tukey’s post-hoc test and for Student’s T-Test. Error bars shown are the s.e.m. and asterisks indicate significance according to: *: p0.05, **: p0.01, ***: p0.001. p>0.05 is considered not significant.

[2] = tested on: adult zebrafish brain (telencephalic hemisphere); experiment: Peptide translocation area in the telencephalon after CVMI (fluorescein IHC); conditions: 5(6)-carboxyfluorescein-labelled peptide, fluorescein IHC at 1 dpi, n = 3, mean ± s.e.m.
Experimental: as §1, §2
(§4) Stainings were performed as previously described in [36, 43]. Yet after the first washing step a 6 min citrate buffer treatment at 85°C was done. Primary antibodies were sheep anti-fluorescein AP (1:4000, Roche), mouse anti-PCNA (1:500, Dako Cyto) and rabbit anti L-Plastin (Lcp1, 1:7500, a kind gift from Michael Redd, University of Utah, Salt Lake City, UT, USA), they were diluted in PBS. They were incubated at 4°C overnight and secondary antibodies for 30 min at room temperature. Secondary antibodies were Alexa anti-rabbit and anti-mouse 488, 555 (1:500, Molecular probes). FastRed stainings were carried out using Fast Red TR/Naphtol AS-MX tablets (Sigma), according to manufacturer's instructions. Lastly sections were washed using PBSTx and mounted. All immunohistochemical stainings were done on at least five individuals.
as §3

[3] = tested on: adult zebrafish brain (telencephalic hemispheres); experiment: Relative fluorescence levels in the telencephalic hemispheres after CVMI (surface plots); conditions: CVMI 100 μM; for relative fluorescence levels in the telencephalic hemispheres (level of peptide translocated to deep tissues): Fast-Red staining of cryosections, compared to control PolyD
Experimental: as §1, §2, §4
(§5) Images were acquired using an inverted Zeiss AxioImager Z1. Only sections between the caudal end of the olfactory bulb and anterior commissure were counted. The quantification of the average translocation range was done using the AxioVision free hand surface area measurement tool. The area showing anti-fluorescein staining in the left hemisphere was measured against the total this telencephalic hemisphere, based on color thresholds against control images. […]

[4] = tested on: adult zebrafish brain (telencephalon); experiment: L-Plastin immunohistochemistry for immune response (leukocytes/microglia) after peptide CVMI; conditions: for number of L-Plastin-positive cells per hemisphere per section: dose not printed in the block (heading: high doses), PBS-injected control 35 ±6, n = 3, mean ± s.e.m.
Experimental: as §1, §2, §4, §3

[5] = tested on: adult zebrafish brain (ventricular progenitor cells); conditions: CVMI 200 μM, PCNA IHC, n = 3, mean ± s.e.m.
Experimental: as §1, §2
Stainings were performed as previously described in [36, 43]. Yet after the first washing step a 6 min citrate buffer treatment at 85°C was done. […]
as §5

[6] = injection concentration 100 μM, stained area vs total hemisphere
[7] = CVMI at 100 μM, 150 μM and 200 μM (all doses tested), n = 4

Row | Substance | number of TUNEL-positive (apoptotic) cells [1] | average area of peptide translocation in one telencephalic hemisphere [2, 6] | relative fluorescence levels in the telencephalic hemispheres (level of peptide translocated to deep tissues) [3] | number of L-Plastin-positive cells per hemisphere per section ([4]; CVMI) | average area of peptide translocation in one telencephalic hemisphere ([2]; injection concentration 200 μM) [%] | cell death response (TUNEL-positive cells) compared to PolyD control [1, 7] | maximum concentration usable without any cell death response ([1]; CVMI, doses tested 100, 150, 200 μM, TUNEL) | ventricularly proliferating progenitor cells (PCNA+ cells per telencephalic hemisphere section) [5] | effectiveness of penetration relative to Trans (relative fluorescence) ([3]; PolyR versus Trans) [fold] | immune response (L-Plastin-positive cells) compared to PolyD control [4, 7] | maximum concentration usable without activating the immune system ([4]; CVMI, doses tested 100, 150, 200 μM, L-Plastin IHC)
1 | DDDDDDDDD ({5(6)‑carboxyfluorescein}-DDDDDDDDD) [PolyD, Poly-Aspartic Acid] | did not result in any increase in the number of apoptotic cells | did not show any penetration | no translocation | do not alter the number of leukocytes/microglia | – | – | – | – | – | – | –
2 | RKKRRQRRR [Tat] | – | 27 ±13% | – | – | 63 ± 11 | – | – | – | – | – | –
3 | RPARPAR ({5(6)‑carboxyfluorescein}-RPARPAR) [CendRP] | – | did not show any penetration | – | – | – | – | – | – | – | – | –
4 | RRRRRRRRR [PolyR, Poly-Arginine] | unchanged levels of TUNEL-positive cells | 70 ± 4% | significantly elevated levels of penetration | do not alter the number of leukocytes/microglia | 70 ± 5 | did not elicit any cell death response | not toxic at such concentrations | not altered | 3 | did not elicit any immune response | not causing an immune reaction at tested concentrations

Source: paper PMC4403811, “Efficient Cargo Delivery into Adult Brain Tissue Using Short Cell-Penetrating Peptides” (PLoS ONE, 2015)
